B2: EBF2 (EIN3-binding F-box protein 2) (other)
chain: MSGIFRFSGDEDCLLGGSMYLSPGSCPGVYYPARKRLRVAATSFYSGFEEKQTSIDVLPEECLFEILRRLPSGQERSACACVSKHWLNLLSSISRSEVNESSVQDVEEGEGFLSRSLEGKKATDLRLAAIAVGTSSRGGLGKLQIRGSGFESKVTDVGLGAVAHGCPSLRIVSLWNLPAVSDLGLSEIARSCPMIEKLDLSRCPGITDSGLVAIAENCVNLSDLTIDSCSGVGNEGLRAIARRCVNLRSISIRSCPRIGDQGVAFLLAQAGSYLTKVKLQMLNVSGLSLAVIGHYGAAVTDLVLHGLQGVNEKGFWVMGNAKGLKKLKSLSVMSCRGMTDVGLEAVGNGCPDLKHVSLNKCLLVSGKGLVALAKSALSLESLKLEECHRINQFGLMGFLMNCGSKLKAFSLANCLGISDFNSESSLPSPSCSSLRSLSIRCCPGFGDASLAFLGKFCHQLQDVELCGLNGVTDAGVRELLQSNNVGLVKVNLSECINVSDNTVSAISVCHGRTLESLNLDGCKNITNASLVAVAKNCYSVNDLDISNTLVSDHGIKALASSPNHLNLQVLSIGGCSSITDKSKACIQKLGRTLLGLNIQRCGRISSSTVDTLLENLWRCDILY
notes: In the yeast two-hybrid assays the cDNA was cloned into pAS2 or pACT2 (Clontech), so the protein was a fusion with the vector's domain; also called AAR27072.1
B3: EBF1 (EIN3-binding F-box protein 1) (other)
chain: MSQIFSFAGENDFYRRGAIYPNPKDASLLLSLGSFADVYFPPSKRSRVVAPTIFSAFEKKPVSIDVLPDECLFEIFRRLSGPQERSACAFVSKQWLTLVSSIRQKEIDVPSKITEDGDDCEGCLSRSLDGKKATDVRLAAIAVGTAGRGGLGKLSIRGSNSAKVSDLGLRSIGRSCPSLGSLSLWNVSTITDNGLLEIAEGCAQLEKLELNRCSTITDKGLVAIAKSCPNLTELTLEACSRIGDEGLLAIARSCSKLKSVSIKNCPLVRDQGIASLLSNTTCSLAKLKLQMLNVTDVSLAVVGHYGLSITDLVLAGLSHVSEKGFWVMGNGVGLQKLNSLTITACQGVTDMGLESVGKGCPNMKKAIISKSPLLSDNGLVSFAKASLSLESLQLEECHRVTQFGFFGSLLNCGEKLKAFSLVNCLSIRDLTTGLPASSHCSALRSLSIRNCPGFGDANLAAIGKLCPQLEDIDLCGLKGITESGFLHLIQSSLVKINFSGCSNLTDRVISAITARNGWTLEVLNIDGCSNITDASLVSIAANCQILSDLDISKCAISDSGIQALASSDKLKLQILSVAGCSMVTDKSLPAIVGLGSTLLGLNLQQCRSISNSTVDFLVERLYKCDILS
notes: In the yeast two-hybrid assays the cDNA was cloned into pAS2 or pACT2 (Clontech), so the protein was a fusion with the vector's domain; also called FBL6; At2g25490

The target in test [1] is B3. The test can be described thus: yeast two-hybrid. The source says: (§1) We then directly tested the possible interaction between EIN3 full-length protein and individual F-box proteins. Using genome-wide microarray experiments, we narrowed the search for EIN3-interacting F-box proteins by first testing those genes whose RNA levels were regulated by ethylene (Alonso et al., Science 301, 653-657, 2003; H. G. and J. R. E., unpublished data). From this gene list, two closely related candidate F-box proteins were identified which were able to interact with EIN3 in yeast two-hybrid assays (FIGS. 4C and 4E). We designated these two F-box proteins as EBF1 and EBF2 (for EIN3-binding F-box protein 1 and 2). EBF1 was previously named as FBL6 with no function assigned (Xiao and Jang, 2000). These two proteins share 57% identity in amino acid sequence (FIG. 4A), and each contains a well-conserved F-box motif in the amino-terminus and 18 tandem leucine-rich repeats (LRRs) in the carboxyl terminus (FIGS. 4A and 4B). Because LRR domains in several F-box proteins contribute to the substrate binding (Gagne et al., Proc Natl Acad Sci 99, 11519-11524, 2002), we tested whether the C-terminal LRR domains in EBF1 and EBF2 were sufficient for EIN3 interaction. […]

Test [2] addresses B2. The test can be described thus: yeast two-hybrid.
Text: as §1

Test [3] has as its target T1, EIN3 full-length protein (ETHYLENE-…3 transcription factor) (Arabidopsis, UniProt O24606 1-628).
T1 construct: Full-length EIN3 in the direct yeast two-hybrid tests, cloned in pAS2 or pACT2; In the immunoblots it is the endogenous or overexpressed EIN3 from plant extracts; also called At3g20770
T1 sequence: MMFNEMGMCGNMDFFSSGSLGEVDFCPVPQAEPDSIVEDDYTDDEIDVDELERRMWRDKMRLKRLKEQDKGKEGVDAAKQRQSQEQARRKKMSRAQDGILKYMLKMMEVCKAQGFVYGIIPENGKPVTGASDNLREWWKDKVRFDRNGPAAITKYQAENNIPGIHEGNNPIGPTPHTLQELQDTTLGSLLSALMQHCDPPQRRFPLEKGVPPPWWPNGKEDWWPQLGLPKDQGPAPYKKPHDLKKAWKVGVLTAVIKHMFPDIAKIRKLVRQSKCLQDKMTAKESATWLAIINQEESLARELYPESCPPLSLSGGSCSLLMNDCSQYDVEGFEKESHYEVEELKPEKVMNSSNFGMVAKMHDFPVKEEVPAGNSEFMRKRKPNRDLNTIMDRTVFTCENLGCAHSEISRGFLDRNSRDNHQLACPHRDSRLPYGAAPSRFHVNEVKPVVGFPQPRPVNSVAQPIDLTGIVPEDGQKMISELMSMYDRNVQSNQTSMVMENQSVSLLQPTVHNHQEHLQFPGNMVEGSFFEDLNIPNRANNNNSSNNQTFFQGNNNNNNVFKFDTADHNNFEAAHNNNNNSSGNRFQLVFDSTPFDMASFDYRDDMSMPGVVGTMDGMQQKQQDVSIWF
Kind of test: yeast two-hybrid (summary in Example 8).
Text: as §1

Test [4] addresses T1, EIN3 full-length protein (ETHYLENE-…3 …). Kind of test: yeast two-hybrid, filter-lift beta-galactosidase.
Text: as §1

B1: ASK1, an Arabidopsis Skp1 protein (other, UniProt Q39255 1-160, looked up)
chain: MSAKKIVLKSSDGESFEVEEAVALESQTIAHMVEDDCVDNGVPLPNVTSKILAKVIEYCKRHVEAAASKAEAVEGAATSDDDLKAWDADFMKIDQATLFELILAANYLNIKNLLDLTCQTVADMIKGKTPEEIRTTFNIKNDFTPEEEEEVRRENQWAFE
notes: Yeast two-hybrid fusion in pAS2 or pACT2
B1: the binding result in test [1] and in test [2] was “binds” throughout.

On to B2, for which the binding result in test [3] was “binds”.

As to B3, in test [4], the binding result is “binds”.

(Values after patent publication US20110131688A1 (SALK INSTITUTE FOR BIOLOGICAL STUDIES, published 2011).)
